Assay [1] has as its target T1, mouse Siglec15-his protein (mouse).
T1 construct: In house made
T1 chain: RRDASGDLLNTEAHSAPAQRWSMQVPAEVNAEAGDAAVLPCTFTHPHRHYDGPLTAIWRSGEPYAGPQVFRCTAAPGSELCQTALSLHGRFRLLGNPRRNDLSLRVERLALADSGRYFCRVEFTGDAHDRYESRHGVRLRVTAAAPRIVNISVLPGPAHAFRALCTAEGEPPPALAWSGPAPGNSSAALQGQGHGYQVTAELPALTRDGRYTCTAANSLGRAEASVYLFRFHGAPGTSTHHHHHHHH
Briefly: indirect ELISA on coated mouse Siglec15-his. How it is done:
(§1) The anti-Siglec15 antibodies' cross-reactions to cynomolgus or mouse Siglec15 proteins were measured. Briefly, 96-well micro plates were coated with 100 μl of 2 μg/ml cynomolgus Siglec15-his protein (in house made with SEQ ID NO: 21), or 2 μg/ml mouse Siglec15-his protein (in house made with SEQ ID NO: 22) in carbonate/bicarbonate buffer (pH 9.6) for 2 hours at 37° C. ELISA plates were washed once with wash buffer (PBS+0.05% v/v Tween-20, PBST) and then blocked with 200 μl/well blocking buffer (5% w/v non-fatty milk in PBST) overnight at 4° C. Plates were washed 4 times and incubated with 100 μl serially diluted anti-Siglec15 antibodies of the disclosure or controls (starting at 66.7 nM, 5-fold serial dilution in PBST with 2.5% w/v non-fatty milk) for 40 minutes at 37° C. […] The reaction was stopped 4 minutes later at room temperature with 50 μl 1M H₂SO₄, and the absorbance of each well was read on a microplate reader using dual wavelength mode with 450 nm for TMB and 630 nm as the reference wavelength, then the OD (450-630) values were plotted against antibody concentration. Data was analyzed using Graphpad Prism software and EC₅₀ values were reported.

For assay [2], the target named is T2, human Siglec15-Fc protein (human).
T2 construct: In house made; also called recombinant human Siglec15 protein with human IgG1 Fc at the C-terminus
Briefly: competitive ELISA: biotin-labeled human Siglec15-Fc in solution, competitor coated benchmark; falling curve, table row is labelled EC50. How it is done: The abilities of the anti-Siglec15 antibodies of the disclosure to block benchmark-human Siglec15 binding were measured in a competitive ELISA assay. Briefly, the benchmark was coated on 96-well micro plates at 2 μg/mL in PBS, 100 μl per well, and incubated for 2 hours at 37° C. Then plates were washed once with wash buffer, and blocked with 5% w/v non-fatty milk in PBST overnight at 4° C. The next day, the anti-Siglec15 antibodies of the disclosure or controls were diluted with biotin labeled human Siglec15-Fc protein (prepared in-house with SEQ ID NO: 19, 37 ng/ml in PBST with 2.5% w/v non-fatty milk), starting at 80 nM with a 4-fold serial dilution, and incubated at room temperature for 40 minutes. After plate washing 4 times, the antibody/Siglec15-Fc mixtures were added to benchmark coated plates, 100 μl per well. After incubation at 37° C. for 40 minutes, plates were washed 4 times again using wash buffer. Then the plates were added and incubated with 100 μl/well streptavidin conjugated HRP for 40 minutes at 37° C. […] Finally, TMB was added and the reaction was stopped using 1M H₂SO₄, and the absorbance of each well was read on a microplate reader using dual wavelength mode with 450 nm for TMB and 630 nm as the reference wavelength, then the OD (450-630) values were plotted against antibody concentration. Data was analyzed using Graphpad Prism software and IC₅₀ values were reported.
Target sequence in this assay (chain, as listed by the source limits assumed): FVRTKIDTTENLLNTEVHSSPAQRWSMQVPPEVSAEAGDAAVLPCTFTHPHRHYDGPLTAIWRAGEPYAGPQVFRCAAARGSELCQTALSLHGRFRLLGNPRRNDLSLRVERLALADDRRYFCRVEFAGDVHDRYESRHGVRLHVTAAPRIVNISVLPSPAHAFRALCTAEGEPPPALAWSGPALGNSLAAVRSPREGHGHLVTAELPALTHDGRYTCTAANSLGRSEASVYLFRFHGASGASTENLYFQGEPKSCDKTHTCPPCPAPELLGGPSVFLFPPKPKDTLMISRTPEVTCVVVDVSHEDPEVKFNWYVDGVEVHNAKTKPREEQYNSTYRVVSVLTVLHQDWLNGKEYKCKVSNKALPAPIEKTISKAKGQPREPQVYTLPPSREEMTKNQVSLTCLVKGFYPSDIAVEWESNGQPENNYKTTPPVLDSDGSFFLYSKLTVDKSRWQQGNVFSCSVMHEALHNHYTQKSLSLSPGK

Assay [3] addresses T2, human Siglec15-Fc protein. Briefly: competitive ELISA: coated human Siglec15-Fc, blocked ligand biotin-labeled human LRRC4C-Fc. How it is done: Serially diluted anti-Siglec15 antibodies or the controls (starting at 66.67 nM with a 5-fold serial dilution) in PBST with 2.5% w/v non-fatty milk were added to the Siglec15-Fc bound plates, 100 μl per well, and incubated with the human Siglec15-Fc protein at 37° C. for 40 minutes. Plates were washed 4 times again using wash buffer, then added and incubated for 40 minutes at 37° C. with 100 μl/well 290 ng/ml biotin-labeled human LRRC4C-Fc protein (prepared in-house with SEQ ID NO: 23). Plates were washed again using wash buffer. Thereafter, the plates were added with 100 μl/well streptavidin conjugated HRP (1:5000 dilution in PBST buffer, Jackson Immunoresearch, Cat #016-030-084) and incubated for 40 minutes at 37° C. Plates were washed again using wash buffer. Finally, TMB was added and the reaction was stopped using 1M H₂SO₄, and the absorbance of each well was read on a microplate reader using dual wavelength mode with 450 nm for TMB and 630 nm as the reference wavelength, then the OD (450-630) values were plotted against antibody concentration. Data was analyzed using Graphpad Prism software and IC₅₀ values were reported.

Assay [4] addresses T1, mouse Siglec15-his protein. Briefly: indirect ELISA on coated mouse Siglec15-his. As to the method:
as §1

Like-named read-outs stand apart in the source and are kept apart here.

B1: anti-Siglec15 benchmark (ch5G12) (antibody, human IgG1, kappa, V domains shown)
VH: QVQLQQPGAELVKPGASVKMSCKASGYTFTSYWITWVIQRPGQGLEWIGDIYCGSDTMHYNEKFKNKATLTVDTSSSTAYMQLSSLTSEDSAVYYCARWWDYGSSYDYFDYWGQGTTLTVSS
VL: DIKMTQSPSSMYASLGERVTITCKASQDINSYLSWFQQKPGKSPKTLIYRANRLVDGVPSRFSGSGSGQDYSLTISSLEYEDMGIYYCLQYDEFPYTFGGGTKLEIKR
notes: ch5G12 (US 20190202912A1); also called BM; Siglec15-ch5G9
For B1, the EC50 in assay [1] is 0.402 nM; in assay [4], 0.419 nM. Moreover, the IC50 in assay [2] amounted to 0.486 nM; in assay [3], 0.855 nM.

These data come from patent US20230106715A1 (BIOSION, published 2023).
